Consider 2 molecules from paper PMC3257258, “Characterization of a Novel Association between Two Trypanosome-Specific Proteins and 5S rRNA”.

The target of series [1] is T1, P34 (Trypanosoma brucei, UniProt O15758 1-262).
T1 sequence: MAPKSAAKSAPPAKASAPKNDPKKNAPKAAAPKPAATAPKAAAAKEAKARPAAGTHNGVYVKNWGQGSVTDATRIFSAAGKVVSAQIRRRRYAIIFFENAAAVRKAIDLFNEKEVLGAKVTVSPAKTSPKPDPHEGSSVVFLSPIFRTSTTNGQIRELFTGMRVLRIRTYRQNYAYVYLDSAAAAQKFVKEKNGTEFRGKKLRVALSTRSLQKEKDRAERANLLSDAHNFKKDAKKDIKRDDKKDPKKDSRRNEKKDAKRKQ
Kind of series: competition; competes 5S rRNA at 100-1000 ng; Filter binding: 10 mM Tris pH 7.4, 1 mM EDTA, 100 mM NaCl, 0.1% NP-40, 100 ug/mL BSA, RT 20 min; EMSA/competition/RNase H protection: 10 mM Tris-HCl pH 7.4, 150 mM KCl, 0.1 mM DTT, 0.1 mM EDTA, 0.1% NP-40, RT 20 min. The conditions noted are these: protein: recombinant; tags: His (pQE-1); hairpin. Background: A gel shift assay detects complexes by their altered migration in electrophoresis.

Series [2] has as its target T2, P37 (Trypanosoma brucei, UniProt O15759 1-279).
T2 sequence: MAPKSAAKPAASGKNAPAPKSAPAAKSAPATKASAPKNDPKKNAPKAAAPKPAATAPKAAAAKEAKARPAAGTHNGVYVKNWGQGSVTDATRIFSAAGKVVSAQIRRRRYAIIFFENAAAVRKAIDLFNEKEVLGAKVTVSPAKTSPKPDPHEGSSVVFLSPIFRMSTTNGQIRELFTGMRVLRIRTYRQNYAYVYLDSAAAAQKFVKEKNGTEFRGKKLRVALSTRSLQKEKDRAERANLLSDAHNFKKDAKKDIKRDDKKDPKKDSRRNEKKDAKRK
Put plainly: competition; competes 5S rRNA at 100-1000 ng, somewhat better than for P34; Filter binding: 10 mM Tris pH 7.4, 1 mM EDTA, 100 mM NaCl, 0.1% NP-40, 100 ug/mL BSA, RT 20 min; EMSA/competition/RNase H protection: 10 mM Tris-HCl pH 7.4, 150 mM KCl, 0.1 mM DTT, 0.1 mM EDTA, 0.1% NP-40, RT 20 min. The following applies: protein: recombinant; tags: His (pQE-1); hairpin.

Series [3] has as its target T1, P34. Kind of series: filter binding; no significant difference from wild type (one text sentence says P37; legend and assay say P34); Filter binding: 10 mM Tris pH 7.4, 1 mM EDTA, 100 mM NaCl, 0.1% NP-40, 100 ug/mL BSA, RT 20 min; EMSA/competition/RNase H protection: 10 mM Tris-HCl pH 7.4, 150 mM KCl, 0.1 mM DTT, 0.1 mM EDTA, 0.1% NP-40, RT 20 min. The following applies: protein: recombinant; tags: His (pQE-1); label: 32P-UTP (body).

In series [4] the target is T2, P37. Put plainly: filter binding; similar to wild type, data not shown; Filter binding: 10 mM Tris pH 7.4, 1 mM EDTA, 100 mM NaCl, 0.1% NP-40, 100 ug/mL BSA, RT 20 min; EMSA/competition/RNase H protection: 10 mM Tris-HCl pH 7.4, 150 mM KCl, 0.1 mM DTT, 0.1 mM EDTA, 0.1% NP-40, RT 20 min. The following applies: protein: recombinant; tags: His (pQE-1); label: 32P-UTP (body).

Consider GCGGGGUGCCAUACUUACAGGCCUCGC (structured_RNA) [LoopA/StemV], for which the binding result with P34 [1] and with P37 [2] was “binds” in each case.

B1: 5S rRNA deltaU (U43A) (structured_RNA)
RNA: GGGUACGACCAUACUUGGCCGAAUGCACCAUAUCCCGUCCGAAUUGUGAAGUUAAGCGGCCACAGGCCUCGUUAGUACGGCGAUCAGUGAUGGCGCUGGAACCCGGGGUGUUGUACUCU
In the case of B1, the binding result with P34 [3] and with P37 [4] was “binds” in each case.
